The record followed here is paper PMC8291384 (Nature structural & molecular biology, 2020).

The experiment concerns the target T1, mouse RAG1 (aa 265-1040) E962Q, His6-MBP fusion (mouse, UniProt P15919 265-1040, E962Q).
T1 sequence (looked up): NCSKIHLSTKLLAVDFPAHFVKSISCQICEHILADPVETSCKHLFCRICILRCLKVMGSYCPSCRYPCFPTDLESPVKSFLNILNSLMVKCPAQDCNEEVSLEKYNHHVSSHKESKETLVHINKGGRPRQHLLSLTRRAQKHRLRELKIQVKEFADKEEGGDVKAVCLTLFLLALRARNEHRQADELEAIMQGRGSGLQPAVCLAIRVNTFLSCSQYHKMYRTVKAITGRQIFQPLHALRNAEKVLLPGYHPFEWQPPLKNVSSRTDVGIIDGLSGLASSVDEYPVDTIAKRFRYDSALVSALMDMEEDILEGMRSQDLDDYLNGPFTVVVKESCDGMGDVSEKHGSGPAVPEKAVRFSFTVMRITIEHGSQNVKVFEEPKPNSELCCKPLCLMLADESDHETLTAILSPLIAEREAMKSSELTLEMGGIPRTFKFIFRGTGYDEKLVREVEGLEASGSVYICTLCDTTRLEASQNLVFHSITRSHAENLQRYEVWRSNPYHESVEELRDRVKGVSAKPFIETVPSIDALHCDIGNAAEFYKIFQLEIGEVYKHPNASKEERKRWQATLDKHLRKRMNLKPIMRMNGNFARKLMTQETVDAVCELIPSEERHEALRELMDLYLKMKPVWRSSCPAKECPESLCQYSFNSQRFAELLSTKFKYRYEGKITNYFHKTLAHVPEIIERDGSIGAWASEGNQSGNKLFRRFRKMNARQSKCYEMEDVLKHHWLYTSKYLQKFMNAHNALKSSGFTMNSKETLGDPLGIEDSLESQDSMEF
Kind of experiment: cryo-EM structure.

B1: mouse RAG2 (aa 1-520) T490A, His6-MBP fusion (domain or fragment, UniProt P21784 1-520, looked up)
chain: MSLQMVTVGHNIALIQPGFSLMNFDGQVFFFGQKGWPKRSCPTGVFHFDIKQNHLKLKPAIFSKDSCYLPPLRYPATCSYKGSIDSDKHQYIIHGGKTPNNELSDKIYIMSVACKNNKKVTFRCTEKDLVGDVPEPRYGHSIDVVYSRGKSMGVLFGGRSYMPSTQRTTEKWNSVADCLPHVFLIDFEFGCATSYILPELQDGLSFHVSIARNDTVYILGGHSLASNIRPANLYRIRVDLPLGTPAVNCTVLPGGISVSSAILTQTNNDEFVIVGGYQLENQKRMVCSLVSLGDNTIEISEMETPDWTSDIKHSKIWFGSNMGNGTIFLGIPGDNKQAMSEAFYFYTLRCSEEDLSEDQKIVSNSQTSTEDPGDSTPFEDSEEFCFSAEATSFDGDDEFDTYNEDDEDDESVTGYWITCCPTCDVDINTWVPFYSTELNKPAMIYCSHGDGHWVHAQCMDLEERTLIHLSEGSNKYYCNEHVQIARALQAPKRNPPLQKPPMKSLHKKGSGKVLTPAKKS
Consider B1, for which the binding result is “binds”.
